In US11278600B2, “Human alpha-galactosidase variants” (Codexis, Inc., priority 2014, dated 2022):

Legend:
Assay type in all cases: biochemical
[1] = HTP-analysis of supernatants pretreated with base (MUGal hydrolysis); details: challenge at pH 7.0; activity of the variant/activity of WT GLA (SEQ ID NO: 5); yeast supernatant
Procedure: (§1) Yeast (INVSc1) cells transformed with vectors expressing GLA and GLA variants using the lithium acetate method were selected on SD-Ura agar plates. After 72 h incubation at 30° C. colonies were placed into the wells of Axygen® 1.1 ml 96-well deep well plates filled with 200 μl/well SD-Ura broth (2 g/L SD-Ura, 6.8 g/L yeast nitrogen base without amino acids [Sigma Aldrich]), 3.06 g/L sodium dihydrogen phosphate, 0.804 g/L disodium hydrogen phosphate, pH 6.0 supplemented with 6% glucose. The cells were allowed to grow for 20-24 hours in a Kuhner shaker (250 rpm, 30° C., and 85% relative humidity). Overnight culture samples (20 μL) were transferred into Corning Costar® 96-well deep plates filled with 380 µL of SD-ura broth supplemented with 2% glucose. The plates were incubated for 66-84 h in a Kuhner shaker (250 rpm, 30° C., and 85% relative humidity). The cells were then pelleted (4000 rpm×20 min), and the supernatants isolated and stored at 4° C. prior to analysis.
GLA variants were challenged with basic (neutral) buffer to simulate the pHs that the variants encounter in the blood following their administration to a patient. First, 50 μL of yeast culture supernatant and 50 uL of McIlvaine buffer (pH 7.0-8.2) or 200 mM sodium bicarbonate (pH 9.1-9.7) were added to the wells of a 96-well round bottom plate. The plates were sealed and incubated at 37° C. for 1-18 h. For the assay, 10-50 μL of basic-pH-challenged sample was mixed with 0-40 μL, of McIlvaine buffer pH 4.8, 25 μL, of 1 M citrate buffer pH 4.3 and 25 μL, of 4 mM MUGal in McIlvaine buffer pH 4.8. The reactions were mixed briefly and incubated at 37° C. for 30-180 minutes, prior to quenching with 100 μL, of 1 M sodium carbonate. Hydrolysis was analyzed using a SpectraMax® M2 microplate reader monitoring fluorescence (Ex. 355 nm, Em. 448 nm).

[2] = HTP-analysis of supernatants pretreated with acid (MUGal hydrolysis); details: challenge at pH 4.3; activity of the variant/activity of WT GLA (SEQ ID NO: 5); yeast supernatant
Procedure: as §1
GLA variants were challenged with acidic buffer to simulate the extreme pHs that the variants may encounter in lysosomes. First, 50 μL of yeast culture supernatant and 50 uL of McIlvaine buffer (pH 3.3-4.3) were added to the wells of a 96-well round bottom plate. The plates were sealed with a PlateLoc Thermal Microplate Sealer (Agilent) and incubated at 37° C. for 1-3 h. For the assay, 10-50 uL of acid-pH-challenged sample was mixed with 0-40 μL, of McIlvaine buffer pH 4.8, 25 μL, of 1 M citrate buffer pH 4.3 and 25 μL, of 4 mM MUGal in McIlvaine buffer pH 4.8. The reactions were mixed briefly and incubated at 37° C. for 30-180 minutes, prior to quenching with 100 μL, of 1 M sodium carbonate. Hydrolysis was analyzed using a SpectraMax® M2 microplate reader monitoring fluorescence (Ex. 355 nm, Em. 448 nm).

[3] = HTP-analysis of yeast culture supernatants, no challenge (MUGal hydrolysis); details: activity of the variant/activity of WT GLA (SEQ ID NO: 5), yeast supernatant
Procedure: as §1
GLA variant activity was determined by measuring the hydrolysis of 4-methylumbelliferyl α-D-galactopyranoside (MUGal). For this assay, 5-50 μL, of yeast culture supernatant produced as described above, was mixed with 0-45 μL, of McIlvaine Buffer (McIlvaine, J. Biol. Chem., 49:183-186 [1921]), pH 4.8 and 50 μL of 2 mM MUGal in 50 mM citrate, 200 mM KCl, pH 4.6 in a 96-well, black, opaque bottom plate. The reactions were mixed briefly and incubated at 37° C. for 30-180 minutes, prior to quenching with 100 μL, of 1 M sodium carbonate. Hydrolysis was analyzed using a SpectraMax® M2 microplate reader monitoring fluorescence (Ex. 355 nm, Em. 448 nm).

Molecule | Relative Activity of GLA Variants After Challenge at pH 7.0 [1] | Relative Activity of GLA Variants After Challenge at pH 4.3 [2] | Relative Activity of GLA Variants After No Challenge (NC) [3]
16 (protein, Synthetic Polypeptide sequence of Variant No. 16 of mature Human GLA) LDNGLARTPTMGWLHWERFMCNLDCQEEPDSCISEKLFMEMAELMVSDGWKDAGYEYLCIDDCWMAPQRDSEGRLQADPQRFPHGIRQLANYVHSKGLKLGIYADVGNKTCAGFPGSFGYYDIDAQTFADWGVDLLKFDGCYCDSLENLADGYKHMSLALNRTGRSIVYSCEWPLYMWPFQKPNYTEIRQYCNHWRNFADIDDSWKSIKSILDWTSFNQERIVDVAGPGGWNDPDMLVIGNFGLSWNQQVTQMALWAIMAAPLFMSNDLRHISPQAKALLQDKDVIAINQDPLGKQGYQLRQGDNFEVWERPLSGLAWAVAMINRQEIGGPRSYTIAVASLGKGVACNPACFITQLLPVKRKLGFYEWTSRLKSHVNPTGTVLLQLENTMQMSLKDLLL | + (+ = 0.5 to 1.5 relative activity over WT GLA (SEQ ID NO: 5)) | ++ (++ = >1.5 to 2.5 relative activity over WT GLA (SEQ ID NO: 5)) | + (+ = 0.5 to 1.5 relative activity over WT GLA (SEQ ID NO: 5))
18 (protein, Synthetic Polypeptide sequence of Variant No. 18 of mature Human GLA) LDNGLARTPTMGWLHWERFMCNLDCQEEPDSCISEKLFMEMAELMVSEGWKDAGYEYLCIDDCWMAPQRDSEGRLQADPQRFPHGIRQLANYVHSKGLKLGIYADVGNKTCAGFPGSFGYYDIDAQTFADWGVDLLKFDGCYCDSLENLADGYKHMSLALNRTGRSIVYSCEWPLYMWPFQKPNYTEIRQYCNHWRNFADIDDSWKSIKSILDWTSSNQERIVDVAGPGGWNDPDMLVIGNFGLSWNQQVTQMALWAIMAAPLFMSNDLRHISPQAKALLQDKDVIAINQDPLGKQGYQLRQGDNFEVWERPLSGLAWAVAMINRQEIGGPRSYTIAVASLGKGVACNPACFITQLLPVKRKLGFYEWTSRLRSHINPTGTVLLQLENTMQMSLKDLLL | ++ (++ = >1.5 to 2.5 relative activity over WT GLA (SEQ ID NO: 5)) | + (+ = 0.5 to 1.5 relative activity over WT GLA (SEQ ID NO: 5)) | + (+ = 0.5 to 1.5 relative activity over WT GLA (SEQ ID NO: 5))
17 (protein, Synthetic Polypeptide sequence of Variant No. 17 of mature Human GLA) LDNGLARTPTMGWLHWERFMCNLDCQEEPDSCISEKLFMEMAELMVSGGWKDAGYEYLCIDDCWMAPQRDSEGRLQADPQRFPHGIRQLANYVHSKGLKLGIYADVGNKTCAGFPGSFGYYDIDAQTFADWGVDLLKFDGCYCDSLENLADGYKHMSLALNRTGRSIVYSCEWPLYMWPFQKPNYTEIRQYCNHWRNFADIDDSWKSIKSILDWTSFNQERIVDVAGPGGWNDPDMLVIGNFGLSWNQQVTQMALWAIMAAPLFMSNDLRHISPQAKALLQDKDVIAINQDPLGKQGYQLRQGDNFEVWERPLSGLAWAVAMINRQEIGGPRSYTIAVASLGKGVACNPACFITQLLPVKRKLGFYEWTSRLKSHINPTGTVLLQLENTMQMSLKDLLL | + (+ = 0.5 to 1.5 relative activity over WT GLA (SEQ ID NO: 5)) | + (+ = 0.5 to 1.5 relative activity over WT GLA (SEQ ID NO: 5)) | + (+ = 0.5 to 1.5 relative activity over WT GLA (SEQ ID NO: 5))
19 (protein, Synthetic Polypeptide sequence of Variant No. 19 of mature Human GLA) LDNGLARTPTMGWLHWERFMCNLDCQEEPDSCISEKLFMEMAELMVSEGWKDAGYEYLCIDDCWMAPQRDSEGRLQADPQRFPHGIRQLANYVHSKGLKLGIYADVGNKTCAGFPGSFGYYDIDAQTFADWGVDLLKFDGCYCDSLENLADGYKHMSLALNRTGRSIVYSCEWPLYMWPFQKPNYTEIRQYCNHWRNFADIDDSWKSVKSILDWTSFNQERIVDVAGPGGWNDPDMLVIGNFGLSWDQQVTQMALWAIMAAPLFMSNDLRHISPQAKALLQDKDVIAINQDPLGKQGYRLRKGDNFEVWERPLSGLAWAVAMINRQEIGGPRSYTIAVASLGKGVACNPACFITQLLPVKRKLGFYEWTSRLKSHVNPTGTVLLQLENTMQMSLKDLLL | + (+ = 0.5 to 1.5 relative activity over WT GLA (SEQ ID NO: 5)) | ++ (++ = >1.5 to 2.5 relative activity over WT GLA (SEQ ID NO: 5)) | + (+ = 0.5 to 1.5 relative activity over WT GLA (SEQ ID NO: 5))
20 (protein, Synthetic Polypeptide sequence of Variant No. 20 of mature Human GLA) LDNGLARTPTMGWLHWERFMCNLDCQEEPDSCISEKLFMEMAELMVSEGWKDAGYEYLCIDDCWMAPQRDSEGRLQADPQRFPHGIRQLANYVHSKGLKLGIYADVGNKTCAGFPGSFGYYDIDAQTFADWGVDLLKFDGCYCDSLENLADGYKHMSLALNRTGRSIVYSCEWPLYMWPFQKPNYTEIRQYCNHWRNFADIDDSWKSVKSILDWTSFNQERIVDVAGPGGWNDPDMLVIGNFGLSWDQQVTQMALWAIMAAPLFMSNDLRHISPQAKALLQDKDVIAINQDPLGKQGYRLRQGDNFEVWERPLSGLAWAVAMINRQEIGGPRSYTIAVASLGKGVACNPACFITQLLPVKRKLGFYEWTSRLKSHVNPTGTVLLQLENTMQMSLKDLLL | ++ (++ = >1.5 to 2.5 relative activity over WT GLA (SEQ ID NO: 5)) | +++ (+++ = >2.5 relative activity over WT GLA (SEQ ID NO: 5)) | + (+ = 0.5 to 1.5 relative activity over WT GLA (SEQ ID NO: 5))
21 (protein, Synthetic Polypeptide sequence of Variant No. 21 of mature Human GLA) LDNGLARTPTMGWLHWERFMCNLDCQEEPDSCISEKLFMEMAELMVSEGWKDAGYEYLCIDDCWMAPQRDSEGRLQADPQRFPHGIRQLANYVHSKGLKLGIYADVGNKTCAGFPGSFGYYDIDAQTFADWGVDLLKFDGCYCDSLENLADGYKHMSLALNRTGRSIVYSCEWPLYMWPFQKPNYTEIRQYCNHWRNFADIDDSWKSVKSILDWTSFNQERIVDVAGPGGWNDPDMLVIGNFGLSWDQQVTQMALWAIMAAPLFMSNDLRHISPQAKALLQDKDVIAINQDPLGKQGYQLRQGDNFEVWERPLSGLAWAVAMINRQEIGGPRSYTIAVASLGKGVACNPACFITQLLPVKRKLGFYEWTSRLKSHVNPTGTVLLQLENTMQMSLKDLLL | ++ (++ = >1.5 to 2.5 relative activity over WT GLA (SEQ ID NO: 5)) | +++ (+++ = >2.5 relative activity over WT GLA (SEQ ID NO: 5)) | + (+ = 0.5 to 1.5 relative activity over WT GLA (SEQ ID NO: 5))
